According to patent US20200131256A1:

Assays:
PACAP38 (human) = test: cell-based or functional assay
PACAP27 (human) = test: cell-based or functional assay
Sequence of PACAP27 (human) (peptide, as listed by the source): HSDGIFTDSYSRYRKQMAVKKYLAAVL

Sequence of PACAP38 (human) (peptide, as listed by the source): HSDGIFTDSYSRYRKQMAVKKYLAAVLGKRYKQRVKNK

- Percentage Tryptase Release upon addition of PACAP38 (1 uM), human mast cells, negative control antibody (PACAP38 (human)): 104%
- Percentage Tryptase Release upon addition of PACAP38 (%), negative control antibody dose 153 uM (PACAP38 (human)): 79.6%
- Percentage Tryptase Release upon addition of PACAP27 (1 uM), human mast cells, negative control antibody (PACAP27 (human)): 110%
- Percentage Tryptase Release upon addition of PACAP27 (%), negative control antibody dose 153 uM (PACAP27 (human)): 94.8%
Substance: Control IgG4 antibody
